The target in the test is T1, Streptavidin (streptavidin column) (UniProt P22629 37-163, limits assumed).
T1 construct: Immobilised on column matrix
As to the kind of experiment: affinity column (streptavidin column without kappa).

T1 sequence (P22629 37-163 limits assumed): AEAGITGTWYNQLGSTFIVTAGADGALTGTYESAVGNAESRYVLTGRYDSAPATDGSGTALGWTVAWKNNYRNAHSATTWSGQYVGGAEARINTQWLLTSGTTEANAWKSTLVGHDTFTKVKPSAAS

B1: LHL (growth factor comprising H flanked by two L molecules) (designed binder)
chain: MKKTAIAIAVALAGFATVAQAAPKDNTEEVTIKANLIFANGSTQTAEFKGTFEKATSEAYAYADTLKKDNGEYTVDVADKGYTLNIKFAGKEATNRNTDGSTDYGILQINSRWGGLTLKEEVTIKANLIFANGSTQTAEFKGTFEKATSEAYAYADTLKKDNGEYTVDVADKGYTLNIKFAG
notes: also called LIIL [sic]
As for B1, the binding result is “no binding”.

For the origin of these results see patent US20030148484A1 (published 2003).
